From article PMC7972864 (2021) come the findings set out here.

The target of experiment [1] is T1, rhKeap1^R415A+Y525A+ (residue 321-609 aa) (human, UniProt Q14145 321-609, R415A | Y525A, biotinylated (site not stated)). In words: BLI.
In experiment [2] the target is T1, rhKeap1^R415A+Y525A+ (residue 321-609 …). Description: BLI. The source holds these as a separate data set.

T1 sequence (Q14145 321-609 R415A/Y525A): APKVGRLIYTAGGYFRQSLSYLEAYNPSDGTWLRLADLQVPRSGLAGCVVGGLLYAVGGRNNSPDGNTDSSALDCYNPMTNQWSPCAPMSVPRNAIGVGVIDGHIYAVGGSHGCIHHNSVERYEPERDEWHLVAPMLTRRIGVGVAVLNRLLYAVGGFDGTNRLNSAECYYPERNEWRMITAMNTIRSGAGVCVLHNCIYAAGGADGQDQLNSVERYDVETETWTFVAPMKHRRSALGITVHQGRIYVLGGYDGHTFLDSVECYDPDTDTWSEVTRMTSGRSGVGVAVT

B1: human Nrf2 protein (natural protein)
chain: MMDLELPPPGLPSQQDMDLIDILWRQDIDLGVSREVFDFSQRRKEYELEKQKKLEKERQEQLQKEQEKAFFAQLQLDEETGEFLPIQPAQHIQSETSGSANYSQVAHIPKSDALYFDDCMQLLAQTFPFVDDNEVSSATFQSLVPDIPGHIESPVFIATNQAQSPETSVAQVAPVDLDGMQQDIEQVWEELLSIPELQCLNIENDKLVETTMVPSPEAKLTEVDNYHFYSSIPSMEKEVGNCSPHFLNAFEDSFSSILSTEDPNQLTVNSLNSDATVNTDFGDEFYSAFIAEPSISNSMPSPATLSHSLSELLNGPIDVSDLSLCKAFNQNHPESTAEFNDSDSGISLNTSPSVASPEHSVESSSYGDTLLGLSDSEVEELDSAPGSVKQNGPKTPVHSSGDMVQPLSPSQGQSTHVHDAQCENTPEKELPVSPGHRKTPFTKDKHSSRLEAHLTRDELRAKALHIPFPVEKIINLPVVDFNEMMSKEQFNEAQLALIRDIRRRGKNKVAAQNCRKRKLENIVELEQDLDHLKDEKEKLLKEKGENDKSLHLLKKQLSTLYLEVFSMLRDEDGKPYSPSEYSLQQTRDGNVFLVPKSKKPDVKKN
As for B1, the koff in experiment [1] was found to be 0.00262 s⁻¹. In experiment [2], this molecule came in with a Kd of 107 nM.
